Data on 4 molecules can be found in PMC9170159 (Proceedings of the National Academy of Sciences of the …, 2022).

The target of assay [1] is SARS-CoV-2 spike receptor-binding domain (RBD), Wuhan-Hu-1, His-tagged (SARS-CoV-2 (Wuhan-Hu-1), UniProt P0DTC2). As to the kind of experiment: BLI. The conditions noted are these: both partners purified.
For assay [2], the target named is SARS-CoV-2 (Wuhan-Hu-1) spike receptor-binding domain, His-tagged (SARS-CoV-2, UniProt P0DTC2 319-541). As to the kind of experiment: BLI. The conditions noted are these: both partners purified.

B1: NCI-CoV-8A2 monomeric VHH (VHH-His) (VHH)
VHH: AVQLVDSGGGSVQAGGSLRLSCAASGYTYSICTMGWYRQAPGEGLEWVSGINADGSNTHYTDSVKGRFTISRDNAKKTLYLQMNSLKPEDTAIYYCAAHGTYDKYAPCGGFAGTYTYWGQGTQVTVSS
B1: the dissociation constant (Kd) in assay [1] is 0.8 nM.

B2: NCI-CoV-2F7 VHH-hFc fusion protein (Fc fusion)
VHH: QVKLEESGGGSVQSGGSLRLSCTVSRDTNTNINRCMGWFRQAPGKGLETVATINRDGTNTYYTDAVKGRFTISQDNVKNTVYLQMNNLTPEDTGTYICNAMGRGSGSRCDNWDPNYWGQGTQVTVSS
notes: also called 2F7 VHH-Fc; source: Expi293 cells, transfected, purified (protein A column)
Take B2: the Kd in assay [2] amounted to 0.77 nM.

B3: NCI-CoV-2F7 monomeric VHH (VHH-His) (VHH)
VHH: B2 VHH
For B3, the dissociation constant Kd in assay [1] was 0.75 nM.

B4: NCI-CoV-7A3 monomeric VHH (VHH-His) (VHH)
VHH: QVQLVESGGGSVQPGGSLRLSCVVSGYTSSSRYMGWFRQVPGKGLEWVSGIKRDGTNTYYADSVKGRFTISQDNAKNTVYLQMNSLKPEDTAMYYCAAGSWYNQWGYSMDYWGKGTQVTVSS
In assay [1], B4 showed a Kd of 0.96 nM.
